Experimental data from patent publication US20250215397A1, “TWO-DIMENSIONAL CULTURE METHOD HAVING CLEAR CHEMICAL COMPOSITION FOR CULTURING THREE-DIMENSIONAL INTESTINAL ORGANOID-DERIVED INTESTINAL STEM CELL AGGREGATE” (KOREA RESEARCH INSTITUTE OF BIOSCIENCE AND BIOTECHNOLOGY, priority 2022, published 2025).

B1: R-spondin 1: WNT/R-spondin activator (protein, UniProt Q2MKA7 21-263, looked up)
R-spondin-1: SRGIKGKRQRRISAEGSQACAKGCELCSEVNGCLKCSPKLFILLERNDIRQVGVCLPSCPPGYFDARNPDMNKCIKCKIEHCEACFSHNFCTKCKEGLYLHKGRCYPACPEGSSAANGTMECSSPAQCEMSEWSPWGPCSKKQQLCGFRRGSEERTRRVLHAPVGDHAACSDTKETRRCTVRRVPCPEGQKRRKGGQGRRENANRNLARKESKEAGAGSRRRKGQQQQQQQGTVGPLTSAGPA
B2: WNT3A: human recombinant WNT3A, Wnt signaling pathway activator (protein, UniProt P56704 19-352, looked up)
Protein Wnt-3a: SYPIWWSLAVGPQYSSLGSQPILCASIPGLVPKQLRFCRNYVEIMPSVAEGIKIGIQECQHQFRGRRWNCTTVHDSLAIFGPVLDKATRESAFVHAIASAGVAFAVTRSCAEGTAAICGCSSRHQGSPGKGWKWGGCSEDIEFGGMVSREFADARENRPDARSAMNRHNNEAGRQAIASHMHLKCKCHGLSGSCEVKTCWWSQPDFRAIGDFLKDKYDSASEMVVEKHRESRGWVETLRPRYTYFKVPTERDLVYYEASPNFCEPNPETGSFGTRDRTCNVSSHGIDGCDLLCCGRGHNARAERRREKCRCVFHWCCYVSCQECTRVYDVHTCK
B3: Noggin: BMP inhibitor (protein, UniProt Q13253 28-232, looked up)
Noggin: QHYLHIRPAPSDNLPLVDLIEHPDPIFDPKEKDLNETLLRSLLGGHYDPGFMATSPPEDRPGGGGGAAGGAEDLAELDQLLRQRPSGAMPSEIKGLEFSEGLAQGKKQRLSKKLRRKLQMWLWSQTFCPVLYAWNDLGSRFWPRYVKVGSCFSKRSCSVPEGMVCKPSKSVHLTVLRWRCQRRGGQRCGWIPIQYPIISECKCSC

Legend:
Assay type in all cases: cell-based, human
[1] = tested on: two-dimensional intestinal stem cell population; test: Differentiation into 2.5-dimensional intestinal epithelial cells by air-liquid interface culture, medium factor screening; details: minimal medium composition; FIG. 24
Procedure: The intestinal stem cells grown to a density of 70 to 80% were washed 1-2 times with PBS, and then treated with TE in an incubator at 37° C. for 5 to 7 minutes. The intestinal stem cells isolated into single cells were collected and then diluted using the hIO medium. The cells were gathered by centrifugation, supernatant was removed, the intestinal stem cell culture medium was added thereto and sufficiently mixed, and then the number of cells was measured using Countess III cell counter (Thermo Scientific. Inc.). 2.5-3.5×10^5 cells were placed in an insert of 12-transwell plate (Corning) coated with 1% of Matrigel, and cultured in an incubator. After the cell density reached 100%, the culture medium of an upper layer was completely removed, and the culture medium of a lower layer was replaced with a differentiation medium (2 mM of L-glutamine, 1% of Penicillin-Streptomycin, and 15 mM of a HEPES buffer in Advanced DMEM F12) comprising 200 ng/ml of R-spondin 1 (R&D Systems), 100 ng/ml of EGF (R&D Systems), 2.5 µM of Prostaglandin E2 (Sigma-aldrich), 10 μM of SB202190 (Sigma-aldrich), and 10 mM of nicotinamide (Sigma-aldrich). Thereafter, once every 2 days, a surface of the upper layer was washed with the PBS or hIO medium, and the lower layer was replaced with a new differentiation medium and cultured for 8 to 12 days.

[2] = tested on: two-dimensional intestinal stem cell population; test: Two-dimensional culture of intestinal stem cell population with removal of medium factors or inhibitor treatment; details: presence or absence of each factor; FIGS. 7-10
Procedure: (§1) The three-dimensional intestinal organoids were isolated from a Matrigel dome and the remaining three-dimensional intestinal organoids were removed as much as possible by pipetting. The separated organoids were placed in 1 ml of 0.25% trypsin-EDTA (TE, Invitrogen) and incubated at 37° C. a water bath for about 5 minutes. Then, pipetting was performed less than five times so that the organoids were allowed to be isolated into single cells and small clumps, and a basal medium was added so that the total volume thereof was 10 ml. The cells fed into a centrifuge were placed on culture dishes coated with feeder cells or 1% of Matrigel (Corning). […]
To measure viability of a two-dimensional intestinal stem cell population cultured in a culture dish coated with 1% of Matrigel, a kit (LIVE/DEAD Viability/Cytotoxicity Kit, Invitrogen) capable of distinguishing and staining surviving cells and dead cells was used. […] The stained cells were observed through a fluorescence microscope (Olympus).
The two-dimensional intestinal stem cell population was plated on a culture dish coated with 1% of Matrigel and then cultured for 2 to 7 days. […] After centrifugation, a medium was added to isolate the cells into single cells, and then the number of cells was measured using CountessIII cell counter (Thermo Scientific. Inc.). […]

[3] = tested on: two-dimensional intestinal stem cell population; test: Subculture of two-dimensional intestinal stem cells, engraftment / cell number; details: factor removed from culture medium, subculture; FIG. 12
Procedure: as §1
The two-dimensional intestinal stem cell population was plated on a culture dish coated with 1% of Matrigel and then cultured for 2 to 7 days. […] After centrifugation, a medium was added to isolate the cells into single cells, and then the number of cells was measured using CountessIII cell counter (Thermo Scientific. Inc.).

| Molecule | effect on differentiation into intestinal epithelial cells [1] | role of essential culture medium factor (stemness, proliferation, death) [2] | need for long-term subculturing [3] |
| --- | --- | --- | --- |
| B1 | excellent effect on differentiation into intestinal epithelial cells | modulate stemness and proliferation of two-dimensional intestinal stem cells |  |
| B2 |  |  | required to more efficiently perform long-term culturing |
| B3 |  |  | required to more efficiently perform long-term culturing |
